Measured values from the supplement of paper PMC10567573.

B1: NCF4 (parent)
chain: FVKILKDFPEEDDPTNWLRCYYYE
B2: DCAF4 (parent)
chain: PGIDRPGMLCSFRIPGAWSCAWSL

Variants of: B1
Test: protein stability index of a GFP-peptide fusion (GPS, HEK-293T) (PSI 1-6); higher = more stable
Conditions: c terminus: a fixed tail appended
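Further: lentivirally expressed fusions sorted by FACS into six bins by GFP to DsRed ratio, PSI derived from sequencing read proportions per bin multiplied by bin number.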

Protein stability index: each site, then its substitutions
L5: I 1.6; N 1.68; H 3.08; Y 2.23; E 1.96; P 2.95; R 2.09; A 1.02; T 2.17; D 2.1; F 1.86; W 1.06
K3: P 2.45; D 2.11; S 2.32; A 2.19; C 1.26; Y 1.01; Q 2.05; T 2.48; E 2; H 1.43; N 2.31; R 1.17
I4: A 1.61; T 1.54; N 2.76; D 1.25; L 2.02; H 2.17; F 3.08; E 1.65; S 2.7; W 3.72; K 3.09; G 1.9; M 2.39; Q 2.15; P 2.15
F1: R 2.25; H 2.7; I 2.09; S 2.55; N 2.96; A 1.99; Q 2.56; K 2.68; C 1.46; W 3.29; V 2.21; M 2.11; L 2.17; P 2.05; T 2.6
K6: D 1.96; R 1.17; F 2.93; E 2.5; L 1.96; N 3.4; Q 1.97; I 1.37; S 3.11; V 3.01; P 1.56; T 1.95; M 1.65
V2: A 1.88; Y 2.08; Q 3.03; C 1.95; P 2.82; T 2.4; G 2.24; E 3.02; L 1.76; S 1.62; K 2.16; H 1.57; R 2.38; D 2.05; M 1.96; N 2.11; W 3.35; I 1.46
F8: E 1.14; C 1.25; H 3.3; I 1.25; G 1.18
D7: V 2.69; Q 1.07; W 1.07; P 2.49; H 1.77; L 2.16; C 4.49; E 1

Variants of: B2
Test: as above
Conditions: c terminus: a fixed tail appended

Protein stability index of substitutions, site by site:
P15: S 2.74; F 3.83; I 2.28; Q 4.94; H 3.44; N 2.56; K 3.5; Y 3.12; M 2.89; E 3.99; C 2.96; L 2.04; V 1.8
C20: N 2.15; P 3.17; M 3.55; Q 1.56; E 1.7; G 2.95; H 2.41; I 2.77; F 4.57; R 1.52; D 2.11; S 3.33; W 3.93; T 2.61; L 3.41; V 2.58; K 1.81
R13: Y 2.9; H 2.34; C 2.03; V 2.94; P 3.03; D 1.97; I 3.22; T 3.39; E 3.65; S 2.59; L 3.69; G 2.33; F 2.68
L24: P 2.03; D 2.85; H 2.96; Y 1.96; T 3.74; F 3.21; E 1.38; I 2.42; Q 1.31; S 2.15; R 1.47; V 2.71; A 3.62; N 2.87; W 3.59; K 2.42
W18: K 2.9; N 2.54; Q 2.21; M 2.71; V 3.98; P 2.33; E 1.68; S 2.36; G 2.18; C 2.32; Y 3.06; R 3.25; H 2.73; D 1.76; A 3.12; L 2.87; T 2.63
I14: K 1.68; E 1.76; D 2.83; Q 2.64; L 2.47; Y 2.14; W 2.12; C 1.79; F 2.32; M 1.82; S 2.65; G 1.54; H 2.46; A 1.77; R 3.12; N 1.5
S19: T 2.96; Q 2.74; Y 3.36; M 2.51; H 1.6; V 1.55; A 3.16; D 2.11; L 2.61; E 2.19; I 2.23; P 1.66; G 2.78; W 4.15; R 3.46; K 4.35
S11: P 3.14; E 2.68; M 2.95; V 1.85; D 2.44; R 3.98; K 2.81; Q 2.82; Y 3.16; G 3.07; L 2.81; C 2.19; H 3.42; T 1.56; F 3.19; A 3.01
A17: R 3; I 2.79; Q 2.13; P 1.61; N 2.48; G 3.29; L 2.79; S 4.12; Y 2.95; T 1.77; E 3.28; M 3.08; C 2.26; F 2.16; D 3.01
S23: Y 3.52; N 2.36; V 2.27; P 2.55; G 3.64; C 1.89; L 3.01; D 2.39; W 2.88; I 1.75; K 2.47; Q 3.24; F 2; E 3.03; A 2.91; T 2.5
L9: Y 2.31
F12: P 3.71; C 3.41; T 2.12; E 2.5; H 2.68; Q 2.67; N 2.87; L 2.62; S 2.7; V 3.38; W 4.14; G 2.29; I 2.26; K 1.79; D 2.19
W22: F 2.7; C 1.62; L 2.58; D 1.5; P 1.19; A 2.54; T 1.95; S 1.33; K 1.84; N 1.6; M 3.58; V 1.44; R 2.27; G 1.95; I 3.25; E 2.01; Q 3.24; H 1.74
G16: S 3.06; R 2.68; T 3.2; W 1.49; K 3.56; C 2.39; P 3.49; H 4.24; E 3.31; Q 2.3; I 3.24; L 3.68; N 2.91; Y 2.84; F 2.83; V 2.81; D 2.18
C10: P 2.2; M 3.1; W 3.64; N 2.65; Y 3.23; S 2.9; I 3.54; F 3.57; K 2.77; E 2.82; A 1.68; Q 1.58; H 3.98; D 2.17; G 2.12
A21: R 2.22; F 2.37; V 1.91; D 3.1; K 3.64; Y 4.31; G 3.7; T 2.69; C 2.48; S 2.99; N 2.85; P 2.54; L 2.32; M 2.96; W 2.83
